US20050064507

What was measured:
[1] = target: T1, ADD2 peptide KKKFRTPSFLKKSKK (SEQ ID NO:95) (not fully specified)
T1 chain: KKKFRTPSFLKKSKK

[2] = target: T2, CACNA1C peptide RGFLRSASLGRRASFHLE (SEQ ID NO:96) (not fully specified)
T2 chain: RGFLRSASLGRRASFHLE

[3] = target: T3, CHRM1 peptide RKIPKRPGSVHRTPSRQ (SEQ ID NO:83) (not fully specified)
T3 chain: RKIPKRPGSVHRTPSRQ

[4] = target: T4, EBNA1BP2 peptide KRPGKKGSNKRPGKR (SEQ ID NO:112) (not fully specified)
T4 chain: KRPGKKGSNKRPGKR

[5] = target: T5, FLJ20574 peptide GENVLKKSMKSRVKG (SEQ ID NO:113) (not fully specified)
T5 chain: GENVLKKSMKSRVKG

[6] = target: T6, LIMK-2 peptide LRRRSLRRSNSISKSPGP (SEQ ID NO:121) (not fully specified)
T6 chain: LRRRSLRRSNSISKSPGP

[7] = target: T7, LIMK2 peptide KATTKKRTLRKNDRK (SEQ ID NO:108) (not fully specified)
T7 chain: KATTKKRTLRKNDRK

[8] = target: T8, MARCKS peptide KKKKKRFSFKKSFKL (SEQ ID NO:80) (not fully specified)
T8 chain: KKKKKRFSFKKSFKL

[9] = target: T9, MLK3 peptide HVRRRRGTFKRSKLRARD (SEQ ID NO:76) (not fully specified)
T9 chain: HVRRRRGTFKRSKLRARD

[10] = target: T10, MLK3 peptide QQVDRERPHVRRRRGTFKRS (SEQ ID NO:128) (not fully specified)
T10 chain: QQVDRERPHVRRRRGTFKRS

[11] = target: T11, MYBPC3 peptide LLKKRDSFRTPRDSKLE (SEQ ID NO:103) (not fully specified)
T11 chain: LLKKRDSFRTPRDSKLE

[12] = target: T12, MacMARCKS peptide KKKFSFKKPFKLSGLSFKRN (SEQ ID NO:162) (not fully specified)
T12 chain: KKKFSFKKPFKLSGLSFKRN

[13] = target: T13, NCF1 peptide GAPPRRSSIRNAH (SEQ ID NO:101) (not fully specified)
T13 chain: GAPPRRSSIRNAH

[14] = target: T14, NEURL peptide ALRRPSLRREADD (SEQ ID NO:105) (not fully specified)
T14 chain: ALRRPSLRREADD

[15] = target: T15, NR4A3 peptide KEVVRTDSLKGRRGR (SEQ ID NO:109) (not fully specified)
T15 chain: KEVVRTDSLKGRRGR

[16] = target: T16, PARIS1 peptide EYLERRASRRRAV (SEQ ID NO:130) (not fully specified)
T16 chain: EYLERRASRRRAV

[17] = target: T17, PARIS1 peptide EYLERRASRRRAV (SEQ ID NO:138) (not fully specified)
T17 chain: EYLERRASRRRAV

[18] = target: T18, PKD1 peptide RVVQSVKHTKRKSSTVMK (SEQ ID NO:149) (not fully specified)
T18 chain: RVVQSVKHTKRKSSTVMK

[19] = target: T19, PLEK peptide KFARKSTRRSIRLPE (SEQ ID NO:78) (not fully specified)
T19 chain: KFARKSTRRSIRLPE

[20] = target: T20, SMARCA5 peptide MAQIERGEARIQRRISIKKA (SEQ ID NO:166) (not fully specified)
T20 chain: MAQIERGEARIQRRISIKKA

[21] = target: T21, SPTBN4 peptide EGGDRRASGRRK (SEQ ID NO:110) (not fully specified)
T21 chain: EGGDRRASGRRK

[22] = target: T22, cyclophilin G peptide TEEKSKKRKKKHRKNSRKHK (SEQ ID NO:165) (not fully specified)
T22 chain: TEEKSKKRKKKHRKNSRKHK

[23] = target: T23, cytohesin-2 peptide VDPFYEMLAARKKRISVKKK (SEQ ID NO:150) (not fully specified)
T23 chain: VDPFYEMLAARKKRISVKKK

[24] = target: T24, dag kinase iota peptide NRKKKRTSFKRKA (SEQ ID NO:117) (not fully specified)
T24 chain: NRKKKRTSFKRKA

[25] = target: T25, dag kinase zeta peptide KKKKRASFKRKSSKKG (SEQ ID NO:114) (not fully specified)
T25 chain: KKKKRASFKRKSSKKG

[26] = target: T26, fit1 peptide VQMTWSYPDEKNKRASVRRR (SEQ ID NO:158) (not fully specified)
T26 chain: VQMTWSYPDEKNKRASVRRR

[27] = target: T27, kinesin 3C peptide LEKRGMLGKRPRRKSSRRKK (SEQ ID NO:133) (not fully specified)
T27 chain: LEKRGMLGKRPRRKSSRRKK

[28] = target: T28, phospholemman peptide EEGTFRSSIRRLSTRRR (SEQ ID NO:116) (not fully specified)
T28 chain: EEGTFRSSIRRLSTRRR

[29] = target: T29, ribosomal protein S6 peptide AKRRRLSSLRASTSK (SEQ ID NO:120) (not fully specified)
T29 chain: AKRRRLSSLRASTSK

[30] = target: T30, slp4 peptide TYLLPDKSRQGKRKTSIKRD (SEQ ID NO:153) (not fully specified)
T30 chain: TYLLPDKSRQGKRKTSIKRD

[31] = target: T31, titin peptide PFEVVWYKDKRQLRSSKKYK (SEQ ID NO:160) (not fully specified)
T31 chain: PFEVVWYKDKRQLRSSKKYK

B1: PKC-zeta (protein)
chain: MPSRTGPKMEGSGGRVRLKAHYGGDIFITSVDAATTFEELCEEVRDMCRLHQQHPLTLKWVDSEGDPCTVSSQMELEEAFRLARQCRDEGLIIHVFPSTPEQPGLPCPGEDKSIYRRGARRWRKLYRANGHLFQAKRFNRRAYCGQCSERIWGLARQGYRCINCKLLVHKRCHGLVPLTCRKHMDSVMPSQEPPVDDKNEDADLPSEETDGIAYISSSRKHDSIKDDSEDLKPVIDGMDGIKISQGLGLQDFDLIRVIGRGSYAKVLLVRLKKNDQIYAMKVVKKELVHDDEDIDWVQTEKHVFEQASSNPFLVGLHSCFQTTSRLFLVIEYVNGGDLMFHMQRQRKLPEEHARFYAAEICIALNFLHERGIIYRDLKLDNVLLDADGHIKLTDYGMCKEGLGPGDTTSTFCGTPNYIAPEILRGEEYGFSVDWWALGVLMFEMMAGRSPFDIITDNPDMNTEDYLFQVILEKPIRIPRFLSVKASHVLKGFLNKDPKERLGCRPQTGFSDIKSHAFFRSIDWDLLEKKQALPPFQPQITDDYGLDNFDTQFTSEPVQLTPDDEDAIKRIDQSEFEGFEYINPLLLSTEESV
in vitro phosphorylation (% of best substrate) [1]: 5 | in vitro phosphorylation (% of best substrate) [2]: 22 | in vitro phosphorylation (% of best substrate) [3]: 4 | in vitro phosphorylation (% of best substrate) [4]: 1 | in vitro phosphorylation (% of best substrate) [5]: 1 | in vitro phosphorylation, 1 uM peptide (% of best substrate) [6]: 60 | in vitro phosphorylation, 10 uM peptide (% of best substrate) [6]: 56 | in vitro phosphorylation (% of best substrate) [7]: 1 | in vitro phosphorylation (% of best substrate) [8]: 16 | in vitro phosphorylation (% of best substrate) [9]: 41 | in vitro phosphorylation, 1 uM peptide (% of best substrate) [10]: 14 | in vitro phosphorylation, 10 uM peptide (% of best substrate) [10]: 9 | in vitro phosphorylation (% of best substrate) [11]: 8 | in vitro phosphorylation, 1 uM peptide (% of best substrate) [12]: 7 | in vitro phosphorylation, 10 uM peptide (% of best substrate) [12]: 4 | in vitro phosphorylation (% of best substrate) [13]: 3 | in vitro phosphorylation (% of best substrate) [14]: 4 | in vitro phosphorylation (% of best substrate) [15]: 2 | in vitro phosphorylation, 1 uM peptide (% of best substrate) [16]: 36 | in vitro phosphorylation, 10 uM peptide (% of best substrate) [16]: 39 | in vitro phosphorylation, 1 uM peptide (% of best substrate) [17]: 31 | in vitro phosphorylation, 10 uM peptide (% of best substrate) [17]: 61 | in vitro phosphorylation, 1 uM peptide (% of best substrate) [18]: 3 | in vitro phosphorylation, 10 uM peptide (% of best substrate) [18]: 5 | in vitro phosphorylation (% of best substrate) [19]: 100 | in vitro phosphorylation, 1 uM peptide (% of best substrate) [20]: 2 | in vitro phosphorylation, 10 uM peptide (% of best substrate) [20]: 9 | in vitro phosphorylation (% of best substrate) [21]: 3 | in vitro phosphorylation, 1 uM peptide (% of best substrate) [22]: 1 | in vitro phosphorylation, 10 uM peptide (% of best substrate) [22]: 2 | in vitro phosphorylation, 1 uM peptide (% of best substrate) [23]: 3 | in vitro phosphorylation, 10 uM peptide (% of best substrate) [23]: 6 | in vitro phosphorylation, 1 uM peptide (% of best substrate) [24]: 20 | in vitro phosphorylation, 10 uM peptide (% of best substrate) [24]: 11 | in vitro phosphorylation, 1 uM peptide (% of best substrate) [25]: 45 | in vitro phosphorylation, 10 uM peptide (% of best substrate) [25]: 51 | in vitro phosphorylation, 1 uM peptide (% of best substrate) [26]: 11 | in vitro phosphorylation, 10 uM peptide (% of best substrate) [26]: 72 | in vitro phosphorylation, 1 uM peptide (% of best substrate) [27]: 27 | in vitro phosphorylation, 10 uM peptide (% of best substrate) [27]: 30 | in vitro phosphorylation, 1 uM peptide (% of best substrate) [28]: 100 | in vitro phosphorylation, 10 uM peptide (% of best substrate) [28]: 100 | in vitro phosphorylation, 1 uM peptide (% of best substrate) [29]: 43 | in vitro phosphorylation, 10 uM peptide (% of best substrate) [29]: 34 | in vitro phosphorylation, 1 uM peptide (% of best substrate) [30]: 6 | in vitro phosphorylation, 10 uM peptide (% of best substrate) [30]: 13 | in vitro phosphorylation, 1 uM peptide (% of best substrate) [31]: 15 | in vitro phosphorylation, 10 uM peptide (% of best substrate) [31]: 57
